Test results from patent US20230338465A1 (VITRUVIAE, published 2023).
“And” between values parts separate entries of the source, which are not always exact repeats. Identical values can stand only once.

B1: VP019-F2 (multimer fraction F2 of VP019, V-TIM1-1 with V-IGG4-ADC-A-Fc) (Fc fusion)
chain: SVKVGGEAGPSVTLPCHYSGAVTSMCWNRGSCSLFTCQNGIVWTNGTHVTYRKDTRYKLLGDLSRRDVSLTIENTAVSDSGVYCCRVEHRGWFNDMKITVSLEIVGGGGSGGGGSGGGGSKYGPPCPPCPAPEAAGGPSVFLFPPKPKDTLMISRTPEVTCVVVDVSQEDPEVQFNWYVDGVEVHNAKTKPREEQFNSTYRVVSVLTVLHQDWLNGKEYKCAVSNKGLPSSIEKTISKCKGQPREPQVYTLPPSQEEMTKNQVSLTCLVKGFYPSDIAVEWESNGQPENNYKTTPPVLDSDGSFFLYSRLTVDKSRWQEGNVFSCSVMHEALHNHYTQKSLSLSLGK
notes: also called TM-G4-A-DC; VIT-307
B2: VP025-CT (co-transfected product of genes TM-G4-A-DC and CT-G4-B-DC, heterodimer mixture) (Fc fusion)
chain 1: B1 chain
chain 2: ERLCHPCPWEWTFFQGNCYFMSNSQRNWHDSITACKEVGAQLVVIKSAEEQNFLQLQSSRSNRFTWMGLSDLNQEGTWQWVDGSPLLPSFKQYWNRGEPNNVGEEDCAEFSGNGWNDDKCNLAKFWICKKSAASCSGGGGSGGGGSGGGGSKYGPPCPPCPAPEAAGGPSVFLFPPKPKDTLMISRTPEVTCVVVDVSQEDPEVQFNWYVDGVEVHNAKTKPREEQFNSTYRVVSVLTVLHQDWLNGKEYKCAVSNKGLPSSIEKTISKCKGQPREPQVYTLPPSQEEMTKNQVSLTCLVKGFYPSDIAVEWESNGQPENNYKTTPPVLDSDGSFLLYSKLTVDKSRWQEGNVFSCSVMHEALHNHYTQKSLSLSLGK
notes: also called VP025-CT (heterodimer mixture)
B3: VP020 (V-CTLD-1 with V-IGG4-ADC-B-Fc) (Fc fusion)
chain: B2 chain 2
notes: also called CT-G4-B-DC; VIT-308
B4: VP025-F4 (fraction 4 of VP025-CT, VP019/VP020 heterodimer, about 78% pure) (Fc fusion)
chain 1: B1 chain
chain 2: B2 chain 2
notes: also called VP025-F4 (78% pure heterodimer)

Biological target: T1, SARS-Cov-2 S D614G (SARS-CoV-2, UniProt P0DTC2 16-1213)
T1 construct: also called SARS-CoV-2 S protein (D614G); SARS-COV2 S Protein
Experiment: ELISA, 2.5 mM CaCl2

Binder	EC50
B1	0.9 µg/mL and 10.6 nM
B2	6.9 µg/mL and 82.5 nM
B3	55.6 µg/mL and 641 nM

Biological target: T1, SARS-Cov-2 S D614G
Experiment: ELISA, 2.5 mM CaCl2
Remark: another data set of the same source

Binder	EC50
B2	4 µg/mL and 47.6 nM

Biological target: T1, SARS-Cov-2 S D614G
Experiment: ELISA, 2.5 mM CaCl2
Remark: another data set of the same source

Binder	EC50 [µg/mL]
B1	1.7
B2	1.2
B3	4.5
B4	0.8

Biological target: T1, SARS-Cov-2 S D614G
Experiment: ELISA, 2.5 mM CaCl2
Remark: another data set of the same source

Binder	EC50 [nM]
B1	21.1
B2	13.8
B3	52.5
B4	10
